The record followed here is patent US20110105733A1 (Ablynx, published 2011).

One experiment deals with T1, human Notch-3 (human, UniProt Q9UM47 40-467, limits assumed).
T1 construct: Construct not described
T1 sequence (looked up): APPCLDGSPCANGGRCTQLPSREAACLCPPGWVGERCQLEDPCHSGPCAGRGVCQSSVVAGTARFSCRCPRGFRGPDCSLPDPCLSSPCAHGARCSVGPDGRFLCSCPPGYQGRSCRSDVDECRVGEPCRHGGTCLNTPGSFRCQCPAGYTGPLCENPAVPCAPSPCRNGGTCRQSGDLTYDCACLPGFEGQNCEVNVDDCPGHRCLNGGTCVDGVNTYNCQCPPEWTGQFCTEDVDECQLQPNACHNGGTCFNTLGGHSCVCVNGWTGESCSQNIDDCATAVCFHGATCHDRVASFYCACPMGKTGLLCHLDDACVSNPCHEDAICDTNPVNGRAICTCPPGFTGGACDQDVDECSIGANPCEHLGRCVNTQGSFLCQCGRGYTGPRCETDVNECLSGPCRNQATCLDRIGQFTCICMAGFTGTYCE
As to the kind of experiment: ELISA: human Notch-3 coated at 2 ug/mL, Nanobody series 25 pM-2000 nM, detection by rabbit anti-VHH and DAMPO, OD 490 nm. As to the method: (§1) After washing, the plate was blocked using 4% Marvel skimmed milk in PBS for 30 minutes on shaker. A concentration series of the Nanobodies in Table B-5 (25 pM to 2000 nM) was added in 100 microliter 2% Marvell/PBS and incubated for 1 h on shaker. After washing the Nanobodies were detected with 100 microliter 1:2500 R-anti-VHH (1:2500) in 2% Marvell/PBS and 100 microliter 1:5000 DAMPO in 2% Marvell/PBS for 1 h on shaker. PO was detected with 100 microliter OPD and stopped with 50 microliter H2SO4. Quantification was performed at 490 nm in a plate reader.

For experiment [1], the target named is T2, recombinant human Notch-1/Fc Chimera (R&D Systems Cat No 3647-TK) (human, UniProt P46531 19-526).
T2 construct: Bought reagent; also called rhNotch-1/hFc; rhNotch-1; not shown: human Fc (hFc)
As to the kind of experiment: ELISA: human Notch-1 coated at 2 ug/mL, Nanobody series 25 pM-2000 nM, detection by rabbit anti-VHH and DAMPO, OD 490 nm. As to the method: as §1

Experiment [2] has as its target human Notch-2 (R&D Systems Cat #3735-NT-050), Notch-2-Fc fusion (human) (UniProt Q04721). In words: ELISA: human Notch-2 coated at 2 ug/mL, Nanobody series 25 pM-2000 nM, detection by rabbit anti-VHH and DAMPO, OD 490 nm.
The target in experiment [3] is T3, human DLL4 (rhDLL4, R&D Systems Cat #1506-D4-050) (human, UniProt Q9NR61 27-529).
T3 construct: extracellular domain; Bought reagent
T3 sequence (Q9NR61 27-529): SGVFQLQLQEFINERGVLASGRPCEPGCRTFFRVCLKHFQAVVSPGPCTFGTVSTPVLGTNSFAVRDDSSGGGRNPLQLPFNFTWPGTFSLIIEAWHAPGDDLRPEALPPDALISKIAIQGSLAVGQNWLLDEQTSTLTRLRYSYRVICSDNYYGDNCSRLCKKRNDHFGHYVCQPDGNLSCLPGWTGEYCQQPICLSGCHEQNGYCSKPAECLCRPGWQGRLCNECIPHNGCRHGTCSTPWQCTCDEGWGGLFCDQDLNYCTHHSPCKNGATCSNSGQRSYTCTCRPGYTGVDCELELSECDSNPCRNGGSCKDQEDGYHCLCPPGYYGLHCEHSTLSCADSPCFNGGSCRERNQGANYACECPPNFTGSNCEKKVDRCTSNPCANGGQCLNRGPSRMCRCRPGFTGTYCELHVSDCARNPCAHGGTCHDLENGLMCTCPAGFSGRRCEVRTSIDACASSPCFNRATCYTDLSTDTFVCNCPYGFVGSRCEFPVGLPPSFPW
In words: ELISA: rhDLL4 coated at 5 ug/mL, Nanobody series, detection by mouse anti-Myc tag (9E10) and DAMPO, OD 490 nm. How it is done: Two rounds of phage display selection were performed similarly as described above. Binding assays were performed. In short: Maxisorp plate was coated with 100 ul 5 ug/ml of rhDLL4 (R&D systems) in PBS O/N at 4° C. After washing the plate was blocked with 4% MPBS for 30 minutes hour on shaker. A concentration series of Nanobody (1-1000 nM) was added in 100 ul 2% Marvell/PBS and incubate for 1 hour on shaker. Nanobody was detected with 100 ul 1:5000 Mouse-anti-MycTag (9E10) in 2% Marvell/PBS and with 100 ul 1:5000 DAMPO in 2% Marvell/PBS for 1 hour on shaker. After washing PO was detected with 100 ul OPD and stopped with 50 ul H2SO4. Quantification was performed at 490 nm in a plate reader.

Experiment [4] deals with T2, recombinant human Notch-1/Fc Chimera …. In words: ELISA: human Notch-1/Fc coated at 2 ug/mL, Nanobody series, detection by mouse anti-Myc tag and DAMPO, OD 490 nm. How it is done: After washing the plate was blocked using 4% Marvel skimmed milk in PBS for 30 minutes on shaker. A concentration series of Nanobody (1 to 1000 nM) was added in 100 microliter 2% Marvell/PBS and incubated for 1 h on shaker. […] PO was detected with 100 microliter OPD and stopped with 50 microliter H2SO4. Quantification was performed at 490 nm in a plate reader.

The target in experiment [5] is T4, rat Jagged-1 (rrJagged-1, R&D Systems Cat #599-JG) (rat, UniProt Q63722 34-1067).
T4 construct: extracellular domain; Bought reagent; also called non-biotinylated Jagged-1; cold-jagged1
As to the kind of experiment: ELISA: rat Jagged-1 (rrJagged-1) coated at 2 ug/mL, Nanobody series, detection by mouse anti-Myc tag and DAMPO, OD 490 nm. How it is done:
Two rounds of phage display selection were performed similarly as described above. Binding assays were performed. In short: Maxisorp plate was coated with 100 ul 2 ug/ml of rrJagged-1 (R&D systems) in PBS O/N at 4 C. After washing the plate 4× with PBS the plate was blocked with 4% Marvel in PBS for 30 minutes on shaker. A concentration series of Nanobody (1-1000 nM) was added in 100 ul 2% Marvell/PBS and incubate for 1 hour on shaker. After washing the plate 4× with PBS the Nanobodies were detected with 100 ul 1:5000 Mouse-anti-MycTag in 2% Marvell/PBS for 1 hour and 100 ul 1:5000 DAMPO in 2% Marvell/PBS for 1 hour. After washing the DAMPO was detected with 100 ul OPD, stopped with 50 ul H2SO4 and quantification was performed at 490 nm in a plate reader.

Numbering of substitutions follows the chain as printed.

B1: 4H2 (VHH)
VHH: EVQLVESGGGLVQAGGSLRLSCATSGFTFSRFDMSWFRQAPGKQREFIATIFSGGDTDYIDSVKGRFTISRDNAKNTVYLQMNSLKPEDTAVYYCCPLGIEYAWGQGTQVTVSS
On to B1, for which the binding result (in the experiment with human Notch-3; in experiment [1]) was “no binding (tested: 2000 nM)” each time.

B2: 181D3 (VHH)
VHH: EVQLVESGGGLVQAGGSLRLSCAASTNVSSFNTMSWYRQSPRKQREWVATITDGDNTHYADSVKGRFTTSRDNAKNLLYLQMNSLKPEDTAVYYCTGWRATSGGSYGQGTQVTVSS
notes: Nanobody against human Notch-2, 'generated as above'
In the case of B2, the binding result (with human Notch-3; in experiment [1]) was “no binding (tested: 2000 nM)” throughout. The same molecule came in with an EC50 (read off the curve) in experiment [2] of 5 nM.

B3: 179F6 (VHH)
VHH: EVQLVESGGGLVQAGGSLRLSCAASGSDFSGFLLGWYRQPPGKQRELIAQTTDGGRTNYGDSVKGRFTISRDNAKNTWYLQMDSLKPEDTGVYYCNTFPLTSWGQGTQVTVSS
notes: Nanobody against human DLL4; not shown: C-terminal c-myc tag and His6 tag coded by vector pAX50
B3: the binding result in experiment [3] is “binds”.

B4: 50C4 (VHH)
VHH: EVQLVESGGDLVQPGGSLRLSCAASGFTFSTYYMSWVRQAPGKGLEWVSGIYSDGSNTYYADSVKGRFTISRDNAKNTLYLQMNSLKSEDTAVYYCTRPVVVAGSPVSYEYDYIGQGTQVTVSS
notes: Nanobody against human Notch-3
B4: in the experiment with human Notch-3, the “EC50 (read off the curve)” value is around 2 nM.

B5: 50H9 (VHH)
VHH: B4 VHH
notes: as for B4
In the case of B5, the “EC50 (read off the curve)” value in the experiment with human Notch-3 was around 2 nM.

B6: 181E3 (VHH)
VHH: EVQLVESGGGLVQPGGSLRLSCAASGFTFGDYAMNWVRQAPGKGLEWVSSISAGGYSTTYADSVKGRFTISRDNAKNTLYLQMNSLNPEDTAVYYCARGDWRYGSRGQGTQVTVSS
notes: as for B2
Regarding B6, the binding result (with human Notch-3; in experiment [1]) was “no binding (tested: 2000 nM)” throughout.

B7: 180A4 (VHH)
VHH: EVQLVESGGGLVQPGGSLRLSCAASGRTSSPIAMGWFRQAPGKEREFVSGITWSGAYTHYANSVKGRFTISRDSAKNTVYLQMNSLKPEDTAVYYCTTATNSTTGYDYWGQGTQVTVSS
As to B7, in experiment [4], the “EC50 (read off the curve)” value is around 7 nM.

B8: 181B3 (VHH)
VHH: EVQLVESGGGLVQAGGSLRLSCVVSGSILSINTMDWYRQAPGKQREWFAGLSDGGRANYADSVKDRFTIARDNAKNTVYLQMNSLKPGDTAIYYCAADLWDRGATTGRYWGQGTQVTVSS
notes: detection there was with anti-VHH
As for B8, the binding result (in the experiment with human Notch-3; in experiment [1]) was “no binding (tested: 2000 nM)” each time. For the same molecule, the 50% effective concentration (EC50 (read off the curve)) in experiment [2] came out at 2 nM.

B9: 179D12 (VHH)
VHH: EVQLVESGGGLVQAGGSLRLSCVASGDTSEIYDMGWFRQAPGKEREFVSSIHWGGRGTNYTDSVKGRFTISKDNAKNMVYLQMNSLKPEDTAVYYCAATRLIVYTPTGFRQYFDWGQGTQVTVSS
notes: as for B3
Consider B9, for which the binding result in experiment [3] was “binds”.

B10: 179A10 (VHH)
VHH: B9 VHH with Y80H
notes: as for B3
On to B10, for which the binding result in experiment [3] is reported as “binds”.

B11: 179E6 (VHH)
VHH: B9 VHH with V23I, G54R, K65E, T119A
notes: as for B3
Turning to B11, the binding result in experiment [3] is “binds”.

B12: 178D9 (VHH)
VHH: EVQLVKSGGGLVQPGGSLRLSCAASGSIVSANLIGWYRQAPGKQREGVAFITSGGAINYADSVKGRFTISRDDAKNTVYLQMNSLKPEDTAIYYCNLRQLGNVYWAQGTQVTVSS
notes: Nanobody against rat Jagged-1; not shown: C-terminal c-myc tag and His6 tag coded by vector pAX50
Regarding B12, in experiment [5], the binding result is “binds”.

B13: 180F4 (VHH)
VHH: EVQLVESGGGLVQAGDSLRLSCAVSGGSFSSYTMGWVRQAPGKEREAVASIWRSGGNTYYADSVKGRFTVSRDNAKHTVYLQMNSLKPEDTAVYYCAAASFAPGSRGYDYWGQGTQVTVSS
Turning to B13, the “EC50 (read off the curve)” value in experiment [4] is around 20 nM.

B14: 179F7 (VHH)
VHH: EVQLVESGGGLVQSGGSLSLSCAASGSVLRINDMGWYRQAPGKTREMVATITRSGVLNYTDSVKGRFTVSRDDAKNTVYLQMSSLKPEDTAVYSCFANIVIRSSGYFNRYWGQGTLVTVSS
notes: as for B3
Turning to B14, the binding result in experiment [3] is reported as “binds”.

B15: 178A7 (VHH)
VHH: EVQLVESGGGLVQPGGSLRLSCATSGVIFSTAAMGWYRQAPGKSRVLVARMFSDGRTIYAESVKRRFTISRDNAKNTVYLQMNSLEPEDTAVYYCNALQFGAVYWGQGTQVTVSS
notes: as for B12
With B15, in experiment [5], the “EC50 (read off the curve)” value is around 20 nM.

B16: 180C1 (VHH)
VHH: EVQLVESGGDLVQPGGSLRLSCAASRTVFSISDMGWSRQAPGKERELVASISSDNYTVYADAAKGRFTISRDNSKNTVYLEMNSLKPDDTAVYYCRVVDPLRGKLYWGQGTQVTVSS
On to B16, for which the “EC50 (read off the curve)” value in experiment [4] is around 20 nM.

B17: 180B3 (VHH)
VHH: B16 VHH with R26G, I31N, S32N, I51F, S52T, D54G, N55G, Y56N, P100L
Take B17: the “EC50 (read off the curve)” value in experiment [4] is around 6 nM.

B18: 180F10 (VHH)
VHH: B16 VHH with R26A, I31N, S52T, S53T, N55G, Y56N, V58L, T68A, S70Y, P100L
For the molecule B18, the “EC50 (read off the curve)” value in experiment [4] is around 5 nM.

B19: 180F8 (VHH)
VHH: B16 VHH with A23T, A24T, R26G, S32N, E44G, D54E, N55G, Y56T, V58I
notes: Nanobody against human Notch-1
For the molecule B19, the binding result in the experiment with human Notch-3 was “no binding (tested: 2000 nM)”. Moreover, the “EC50 (read off the curve)” value in experiment [1] lay within 10 to 16 nM.

B20: 181D2 (VHH)
VHH: EVQLVESGGGLVQPGGSLRLSCAASGRINSMNWYRQAPGKEREWVASITSSGTTIYADSVKGRITISEDNAKNTVYLQMNSLKTEDTGVYYCAANLRNARGSYYGQGTQVTVSS
notes: as for B2
On to B20, for which the binding result (with human Notch-3; in experiment [1]) was “no binding (tested: 2000 nM)” in each case. The EC50 (read off the curve) in experiment [2] stood at 5 nM.
